{"source": "IntAct's records for PubMed 29892012", "parents": {"B1": {"name": "Pre-B-cell leukemia transcription factor-interacting protein 1 (Homo sapiens), Q96AQ6 (parent)", "chain": "MASCPDSDNSWVLAGSESLPVETLGPASRMDPESERALQAPHSPSKTDGKELAGTMDGEGTLFQTESPQSGSILTEETEVKGTLEGDVCGVEPPGPGDTVVQGDLQETTVVTGLGPDTQDLEGQSPPQSLPSTPKAAWIREEGRCSSSDDDTDVDMEGLRRRRGREAGPPQPMVPLAVENQAGGEGAGGELGISLNMCLLGALVLLGLGVLLFSGGLSESETGPMEEVERQVLPDPEVLEAVGDRQDGLREQLQAPVPPDSVPSLQNMGLLLDKLAKENQDIRLLQAQLQAQKEELQSLMHQPKGLEEENAQLRGALQQGEAFQRALESELQQLRARLQGLEADCVRGPDGVCLSGGRGPQGDKAIREQGPREQEPELSFLKQKEQLEAEAQALRQELERQRRLLGSVQQDLERSLQDASRGDPAHAGLAELGHRLAQKLQGLENWGQDPGVSANASKAWHQKSHFQNSREWSGKEKWWDGQRDRKAEHWKHKKEESGRERKKNWGGQEDREPAGRWKEGRPRVEESGSKKEGKRQGPKEPPRKSGSFHSSGEKQKQPRWREGTKDSHDPLPSWAELLRPKYRAPQGCSGVDECARQEGLTFFGTELAPVRQQELASLLRTYLARLPWAGQLTKELPLSPAFFGEDGIFRHDRLRFRDFVDALEDSLEEVAVQQTGDDDEVDDFEDFIFSHFFGDKALKKRSGKKDKHSQSPRAAGPREGHSHSHHHHHRG"}, "B2": {"name": "Late cornified envelope protein 1B (Homo sapiens), Q5T7P3 (parent)", "chain": "MSCQQNQQQCQPPPKCIPKCPPKCLTPRCPPKCPPKCPPVSSCCSVSSGGCCGSSSGGSCGSSSGGCCSSGGGGCCLSHHRRRRSHCHRPQSSGCCSQPSGGSSCCGGGSGQHSGGCC", "partner": "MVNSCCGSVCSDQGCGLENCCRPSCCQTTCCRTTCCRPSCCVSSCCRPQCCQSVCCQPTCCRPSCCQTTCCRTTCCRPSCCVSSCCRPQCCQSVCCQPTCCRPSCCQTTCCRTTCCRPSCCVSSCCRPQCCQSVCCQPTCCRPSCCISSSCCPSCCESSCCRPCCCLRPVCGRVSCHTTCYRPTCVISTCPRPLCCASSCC"}, "B3": {"name": "Late cornified envelope protein 1B (Homo sapiens), Q5T7P3 (parent)", "chain": "B2 chain", "partner": "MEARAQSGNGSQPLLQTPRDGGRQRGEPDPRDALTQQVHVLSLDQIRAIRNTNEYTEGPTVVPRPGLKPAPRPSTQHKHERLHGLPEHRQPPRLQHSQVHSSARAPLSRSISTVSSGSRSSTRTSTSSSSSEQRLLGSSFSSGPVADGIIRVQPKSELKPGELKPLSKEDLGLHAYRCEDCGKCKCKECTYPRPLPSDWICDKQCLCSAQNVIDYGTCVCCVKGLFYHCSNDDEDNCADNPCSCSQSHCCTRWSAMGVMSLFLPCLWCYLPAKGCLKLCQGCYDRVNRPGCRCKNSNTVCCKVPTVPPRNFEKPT"}, "B4": {"name": "E3 ubiquitin-protein ligase LNX (Homo sapiens), Q8TBB1 (parent)", "chain": "MNQPESANDPEPLCAVCGQAHSLEENHFYSYPEEVDDDLICHICLQALLDPLDTPCGHTYCTLCLTNFLVEKDFCPMDRKPLVLQHCKKSSILVNKLLNKLLVTCPFREHCTQVLQRCDLEHHFQTSCKGASHYGLTKDRKRRSQDGCPDGCASLTATAPSPEVSAAATISLMTDEPGLDNPAYVSSAEDGQPAISPVDSGRSNRTRARPFERSTIRSRSFKKINRALSVLRRTKSGSAVANHADQGRENSENTTAPEVFPRLYHLIPDGEITSIKINRVDPSESLSIRLVGGSETPLVHIIIQHIYRDGVIARDGRLLPGDIILKVNGMDISNVPHNYAVRLLRQPCQVLWLTVMREQKFRSRNNGQAPDAYRPRDDSFHVILNKSSPEEQLGIKLVRKVDEPGVFIFNVLDGGVAYRHGQLEENDRVLAINGHDLRYGSPESAAHLIQASERRVHLVVSRQVRQRSPDIFQEAGWNSNGSWSPGPGERSNTPKPLHPTITCHEKVVNIQKDPGESLGMTVAGGASHREWDLPIYVISVEPGGVISRDGRIKTGDILLNVDGVELTEVSRSEAVALLKRTSSSIVLKALEVKEYEPQEDCSSPAALDSNHNMAPPSDWSPSWVMWLELPRCLYNCKDIVLRRNTAGSLGFCIVGGYEEYNGNKPFFIKSIVEGTPAYNDGRIRCGDILLAVNGRSTSGMIHACLARLLKELKGRITLTIVSWPGTFL", "partner": "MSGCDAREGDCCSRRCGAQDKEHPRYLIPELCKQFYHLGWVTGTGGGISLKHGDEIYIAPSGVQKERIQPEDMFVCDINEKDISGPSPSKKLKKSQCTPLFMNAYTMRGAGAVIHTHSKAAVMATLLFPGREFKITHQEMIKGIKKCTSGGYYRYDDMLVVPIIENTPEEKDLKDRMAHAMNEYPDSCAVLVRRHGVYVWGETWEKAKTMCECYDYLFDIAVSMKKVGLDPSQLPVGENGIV"}, "B5": {"name": "E3 ubiquitin-protein ligase DZIP3 (Homo sapiens), Q86Y13 (parent)", "chain": "MDSLPDEFFVRHPAVEDQRKEETENKLEKSSGQLNKQENDIPTDLVPVNLLLEVKKLLNAINTLPKGVVPHIKKFLQEDFSFQTMQREVAANSQNGEEIVPALTLRFLITQLEAALRNIQAGNYTAHQINIGYYLTLLFLYGVALTERGKKEDYTEAENKFLVMKMMIQENEICENFMSLVYFGRGLLRCAQKRYNGGLLEFHKSLQEIGDKNDHWFDIDPTEDEDLPTTFKDLLNNFIKTTESNIMKQTICSYLDCERSCEADILKNTSYKGFFQLMCSKSCCVYFHKICWKKFKNLKYPGENDQSFSGKKCLKEGCTGDMVRMLQCDVPGIVKILFEVVRKDEYITIENLGASYRKLISLKITDTDIRPKISLKFNTKDEMPIFKLDYNYFYHLLHIIIISGTDIVRQIFDEAMPPPLLKKELLIHKNVLESYYNHLWTNHPLGGSWHLLYPPNKELPQSKQFDLCLLLALIKHLNVFPAPKKGWNMEPPSSDISKSADILRLCKYRDILLSEILMNGLTESQFNSIWKKVSDILLRLGMMQEDIDKVKENPIENISLDYHQLSVYLGIPVPEIIQRMLSCYQQGIALQSITGSQRIEIEELQNEEEELSPPLMEYNINVKSHPEIQFAEINKDGTSIPSESSTESLKDLQEVKSKQRKKKKTKNKKNKDSKEDQVPYVVEKEEQLRKEQANPHSVSRLIKDDASDVQEDSAMEDKFYSLDELHILDMIEQGSAGKVTTDYGETEKERLARQRQLYKLHYQCEDFKRQLRTVTFRWQENQMQIKKKDKIIASLNQQVAFGINKVSKLQRQIHAKDNEIKNLKEQLSMKRSQWEMEKHNLESTMKTYVSKLNAETSRALTAEVYFLQCRRDFGLLHLEQTEKECLNQLARVTHMAASNLESLQLKAAVDSWNAIVADVRNKIAFLRTQYNEQINKVKQGFALSTLPPVQLPPPPPSPEILMQQFLGRPLVKESFFRPILTVPQMPAVCPGVVSATGQPRAPLMTGIAWALPAPVGDAVPPSAGLRSDPSIMNWERITDRLKTAFPQQTRKELTDFLRKLKDAYGKSLSELTFDEIVCKISQFIDPKKSQSQGKSVSNVNCVSPSHSPSQPDAAQPPKPAWRPLTSQGPATWEGASNPDEEEEEEEPCVICHENLSPENLSVLPCAHKFHAQCIRPWLMQQGTCPTCRLHVLLPEEFPGHPSRQLPKI"}, "B6": {"name": "Galectin-8 (Homo sapiens), O00214 (parent)", "chain": "MMLSLNNLQNIIYNPVIPFVGTIPDQLDPGTLIVIRGHVPSDADRFQVDLQNGSSMKPRADVAFHFNPRFKRAGCIVCNTLINEKWGREEITYDTPFKREKSFEIVIMVLKDKFQVAVNGKHTLLYGHRIGPEKIDTLGIYGKVNIHSIGFSFSSDLQSTQASSLELTEISRENVPKSGTPQLRLPFAARLNTPMGPGRTVVVKGEVNANAKSFNVDLLAGKSKDIALHLNPRLNIKAFVRNSFLQESWGEEERNITSFPFSPGMYFEMIIYCDVREFKVAVNGVHSLEYKHRFKELSSIDTLEINGDIHLLEVRSW"}, "B7": {"name": "Tumor suppressor candidate 2 (Homo sapiens), O75896 (parent)", "chain": "MGASGSKARGLWPFASAAGGGGSEAAGAEQALVRPRGRAVPPFVFTRRGSMFYDEDGDLAHEFYEETIVTKNGQKRAKLRRVHKNLIPQGIVKLDHPRIHVDFPVILYEV"}, "B8": {"name": "E3 ubiquitin-protein ligase LNX (Homo sapiens), Q8TBB1 (parent)", "chain": "B4 chain", "partner": "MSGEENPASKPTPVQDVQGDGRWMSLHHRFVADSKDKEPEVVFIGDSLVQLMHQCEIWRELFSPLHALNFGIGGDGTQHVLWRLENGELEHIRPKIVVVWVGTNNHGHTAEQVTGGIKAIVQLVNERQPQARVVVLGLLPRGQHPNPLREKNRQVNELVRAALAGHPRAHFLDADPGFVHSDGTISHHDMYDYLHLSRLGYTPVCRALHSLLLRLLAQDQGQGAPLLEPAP"}, "B9": {"name": "E3 ubiquitin-protein ligase LNX (Homo sapiens), Q8TBB1 (parent)", "chain": "B4 chain", "partner": "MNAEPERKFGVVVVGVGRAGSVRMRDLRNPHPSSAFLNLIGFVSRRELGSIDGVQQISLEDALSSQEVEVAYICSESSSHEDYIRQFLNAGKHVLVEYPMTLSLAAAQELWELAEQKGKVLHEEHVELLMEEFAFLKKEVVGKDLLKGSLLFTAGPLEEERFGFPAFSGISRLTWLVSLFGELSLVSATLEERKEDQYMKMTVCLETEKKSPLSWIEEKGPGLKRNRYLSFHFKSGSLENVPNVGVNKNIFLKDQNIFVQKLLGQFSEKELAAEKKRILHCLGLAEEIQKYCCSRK"}}}
{"variants_of": "B1", "conditions": "with mdfi_human MDFI"}
{"variant": "V238M", "effect of a mutation on the interaction": "with no effect"}
{"variants_of": "B2", "conditions": "with kr412_human KRTAP4-12, Q9BQ66"}
{"variant": "C16Y", "effect of a mutation on the interaction": "disrupting interaction strength"}
{"variants_of": "B3", "conditions": "with spy2_human SPRY2, O43597"}
{"variant": "C16Y", "effect of a mutation on the interaction": "with no effect"}
{"variants_of": "B4", "conditions": "with mtnb_human APIP"}
{"variant": "E295K", "effect of a mutation on the interaction": "disrupting interaction strength"}
{"variants_of": "B5", "conditions": "with ub2e2_human UBE2E2, Q96LR5"}
{"variant": "M1032R", "effect of a mutation on the interaction": "disrupting interaction strength"}
{"variants_of": "B5", "conditions": "with znf24_human ZNF24, P17028"}
{"variant": "M1032R", "effect of a mutation on the interaction": "disrupting interaction strength"}
{"variants_of": "B5", "conditions": "with hnrl1_human HNRNPUL1, Q9BUJ2"}
{"variant": "M1032R", "effect of a mutation on the interaction": "with no effect"}
{"variants_of": "B5", "conditions": "with zch10_human ZCCHC10, Q8TBK6"}
{"variant": "M1032R", "effect of a mutation on the interaction": "disrupting interaction strength"}
{"variants_of": "B6", "conditions": "with taxb1_human TAX1BP1, Q86VP1"}
{"variant": "P194T", "effect of a mutation on the interaction": "with no effect"}
{"variants_of": "B7", "conditions": "with rbpms_human RBPMS"}
{"variant": "R76Q", "effect of a mutation on the interaction": "with no effect"}
{"variants_of": "B7", "conditions": "with mdfi_human MDFI"}
{"variant": "R76Q", "effect of a mutation on the interaction": "disrupting interaction strength"}
{"variants_of": "B8", "conditions": "with pa1b3_human PAFAH1B3, Q15102"}
{"variant": "E295K", "effect of a mutation on the interaction": "disrupting interaction strength"}
{"variants_of": "B9", "conditions": "with biea_human BLVRA"}
{"variant": "E295K", "effect of a mutation on the interaction": "disrupting interaction strength"}
